Assay [1] has as its target T1, TtSlyDcys-Her3.
T1 chain: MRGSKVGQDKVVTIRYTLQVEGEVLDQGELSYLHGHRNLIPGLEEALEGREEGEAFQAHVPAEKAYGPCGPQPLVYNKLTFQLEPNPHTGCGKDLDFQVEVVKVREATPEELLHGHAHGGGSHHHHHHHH
Briefly: SPR Biacore T200, antibody captured, 25 C. On the procedure:
(§1) A Biacore T200 instrument (GE Healthcare) was mounted with a CMS series sensor. The sensor was normalized in HBS-ET buffer (10 mM HEPES pH 7.4, 150 mM NaCl, 3 mM EDTA, 0.05% w/v Tween 20) according to the manufacturer's instructions. The sample buffer was the system buffer supplemented with 1 mg/ml CMD (Carboxymethyldextran, Sigma #86524). The system operated at 25° C. 6500 RU RAM-Fcγ (relative units of Fcγ-fragment RamIgG, GE Healthcare) were immobilized according to the manufacturer's instructions using amine coupling EDC/NHS chemistry on all four flow cells. The sensor was deactivated using 1M ethanolamine. […] Concentration dependent kinetics were measured. […] All analytes were injected for 5 min association time and 10 min dissociation time at 100 μl/min flow rate. The sensor capture system was regenerated by a 3 min injection at 10 μl/min of 10 mM glycine pH 1.7. Where possible kinetic data was evaluated using the Biacore T200 evaluation software.
In general terms: Surface plasmon resonance follows binding to a sensor surface in real time, without labels.

Assay [2] deals with T2, human HER4 Extracellular Domain (ECD) (human, UniProt Q15303 26-651).
T2 construct: also called Her4 ECD; HER4-ECD
T2 sequence: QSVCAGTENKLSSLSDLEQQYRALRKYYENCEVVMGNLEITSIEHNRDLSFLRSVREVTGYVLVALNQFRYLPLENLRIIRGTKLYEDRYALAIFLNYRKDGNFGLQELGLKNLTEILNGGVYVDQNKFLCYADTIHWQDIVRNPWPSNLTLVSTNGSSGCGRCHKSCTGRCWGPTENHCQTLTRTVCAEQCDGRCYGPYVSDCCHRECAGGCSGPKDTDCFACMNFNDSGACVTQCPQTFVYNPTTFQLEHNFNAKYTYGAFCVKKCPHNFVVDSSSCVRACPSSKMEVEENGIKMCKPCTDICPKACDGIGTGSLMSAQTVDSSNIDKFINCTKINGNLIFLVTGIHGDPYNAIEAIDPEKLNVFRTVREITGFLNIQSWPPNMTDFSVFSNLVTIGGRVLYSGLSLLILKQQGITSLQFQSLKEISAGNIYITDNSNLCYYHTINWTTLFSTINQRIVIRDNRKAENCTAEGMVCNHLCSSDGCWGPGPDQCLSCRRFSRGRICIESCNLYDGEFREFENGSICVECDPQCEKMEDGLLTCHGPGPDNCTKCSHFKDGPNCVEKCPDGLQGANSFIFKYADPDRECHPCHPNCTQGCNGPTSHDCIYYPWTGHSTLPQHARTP
The experiment in a line: SPR Biacore T200, antibody captured, 25 C. How it is done: as §1

In assay [3] the target is T3, HER4 ECD-HRG complex (human, UniProt Q15303 26-651).
T3 construct: HER4 ECD preincubated with a 5-fold molar excess of Heregulin
T3 sequence 1: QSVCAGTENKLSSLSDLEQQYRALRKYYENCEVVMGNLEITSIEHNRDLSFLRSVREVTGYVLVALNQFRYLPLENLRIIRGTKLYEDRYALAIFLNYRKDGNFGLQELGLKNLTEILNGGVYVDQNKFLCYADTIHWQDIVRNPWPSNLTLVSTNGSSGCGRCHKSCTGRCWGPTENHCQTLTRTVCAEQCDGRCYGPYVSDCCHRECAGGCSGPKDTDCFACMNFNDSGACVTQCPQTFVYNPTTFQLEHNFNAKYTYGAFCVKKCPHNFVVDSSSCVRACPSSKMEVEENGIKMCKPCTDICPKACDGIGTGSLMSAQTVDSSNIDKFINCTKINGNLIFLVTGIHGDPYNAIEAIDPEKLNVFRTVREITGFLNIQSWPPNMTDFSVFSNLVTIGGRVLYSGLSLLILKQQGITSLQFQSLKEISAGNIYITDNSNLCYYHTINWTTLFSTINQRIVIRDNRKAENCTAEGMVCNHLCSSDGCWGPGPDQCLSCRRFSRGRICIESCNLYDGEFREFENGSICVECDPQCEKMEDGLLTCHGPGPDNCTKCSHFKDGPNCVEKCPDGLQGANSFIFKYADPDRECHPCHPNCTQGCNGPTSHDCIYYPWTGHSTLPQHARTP
T3 sequence 2: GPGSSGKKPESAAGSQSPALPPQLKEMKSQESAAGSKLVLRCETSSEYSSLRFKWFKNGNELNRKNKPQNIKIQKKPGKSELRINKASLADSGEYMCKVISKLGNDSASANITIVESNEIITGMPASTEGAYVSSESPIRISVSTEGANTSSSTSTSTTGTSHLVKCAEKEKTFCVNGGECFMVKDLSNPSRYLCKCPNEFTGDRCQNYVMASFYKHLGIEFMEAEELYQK
Briefly: SPR Biacore T200, antibody captured, 25 C. On the procedure: as §1

Assay [4] deals with T4, human HER3 Extracellular Domain (ECD) (human, UniProt P21860 20-643).
T4 construct: human recombinant, 68 kDa; 'closed' conformation without ligand; also called Her3 ECD; Her-3 ECD
The experiment in a line: SPR Biacore T200, antibody captured, 25 C. On the procedure: as §1

The target of assay [5] is T5, HER3 ECD-HRG complex (human, UniProt P21860 20-643).
T5 construct: HER3 ECD preincubated with a 3- to 6-fold molar excess of Heregulin ('open' conformation); biotinylated Her3-ECD in the ribosome display; also called HER3-ECD/HRG1β
The experiment in a line: SPR Biacore T200, antibody captured, 25 C. How it is done: as §1

Assay [6] has as its target T6, human HER1 Extracellular Domain (ECD) (human, UniProt P00533 25-645).
T6 construct: also called Her1 ECD; HER1-ECD
Briefly: ELISA, coated antigen. How it is done: (§2) For the ELISA the screening an antigen down format was used. […] Hybridoma Supernatant was added to the plates and incubated for 1 h at room temperature. Bound antibody was detected with a HRP-labeled F(ab′)₂ goat anti-mouse Fcγ (Dianova) and ABTS (Roche) was used as a HRP-substrate.
(§3) As negative controls the scaffold proteins TtSlyDcas and TgSlyDΔIF were used.

In assay [7] the target is T4, human HER3 Extracellular Domain (ECD). Briefly: ELISA, coated antigen. On the procedure: as §2, §3
Background: ELISA stands for enzyme-linked immunosorbent assay.

For assay [8], the target named is T7, human HER1 (full length, on cells) (human, UniProt P00533 25-1210).
T7 construct: HEK293 cells transfected with full length HER1, fixed and embedded (IHC); also called EGFR
The experiment in a line: IHC (Ventana Benchmark XT) on formalin-fixed, paraffin-embedded HEK293 cells transiently transfected with full length HER1. On the procedure:
(§4) All selected clones were tested for reactivity and specificity in IHC. […] After an additional fixation in formalin overnight the Agarose blocks were embedded in paraffin. Untransfected HEK293 cells were used as negative controls and treated accordingly to the transfected cells. After paraffin embedding 3 μm thin sections were prepared using a microtome. The sections were mounted on glass microscopy slides and dried for 2 h. All further steps of the immunohistochemical staining procedure were carried out using a Ventana Benchmark XT. The slides were dewaxed and antigen retrieval was performed by applying heat for 1 hour. For antigen retrieval the Ventana buffer CC1 was used. The antibodies were used at a concentration of 1 μg/ml. For the detection of bound antibody the Ventana UltraView detection kit was used.

The target in assay [9] is T8, human HER2 (full length, on cells) (human, UniProt P04626 23-1255).
T8 construct: HEK293 cells transfected with full length HER2 (IHC); MCF-7 cells (co-immunoprecipitation)
The experiment in a line: IHC (Ventana Benchmark XT) on formalin-fixed, paraffin-embedded HEK293 cells transiently transfected with full length HER2. How it is done:
as §4

B1: anti-HER3/HER4 antibody M-05-74 (antibody, V domains shown)
VH: QVQLQQSGAELAKPGASVKMSCKTSGYTLTDYWIHWVKQRPGQGLEWIGYINPYTGYTESNQKFKDKATLTADKSSNTAYIQLSSLTSEDSAVYYCARPYYYGDYWGQGTTLTVSS
VL: QIVLTQSPAIMSASPGERVTITCSASSSVSYMHWFQQKPGTSPKLLIYSTSNLASGVPARFSGSGSGTSYSLTISRMEAEDAATYYCQQRSSYPFTFGSGTKLEIK
notes: murine monoclonal IgG from hybridoma (supernatant or purified), bivalent; also called M-074; M-5-74
The Kd is the constant that tells how readily two partners part at equilibrium. A higher Kd goes with a looser complex. A word on the koff: it is the first-order rate constant of dissociation. As a reminder, the kon is the second-order rate constant of association. Lower therefore signals slow association. As to B1, the Kd was determined as 7.8 nM in [1]; 51 nM in assay [2]; 8.1 nM in assay [3]; 1.1 nM in [4]; 2.8 nM in assay [5]. Moreover, the “MR (Molar Ratio)” value came out at 1.9 in assay [1]; 0.1 in assay [2]; 0.8 in assay [3]; 0.1 in [4]; 0.8 in assay [5]. The koff in assay [1] is 0.00024 s⁻¹; in assay [2] it was 0.00082 s⁻¹; in [3] it was 0.00081 s⁻¹; in assay [4], 0.00011 s⁻¹; in assay [5], 0.00029 s⁻¹. Moreover, the kon in assay [1] was determined as 30000 M⁻¹ s⁻¹; in [2], 16000 M⁻¹ s⁻¹; in [3] it was 99000 M⁻¹ s⁻¹; in [4] it was 96000 M⁻¹ s⁻¹; in [5] it was 100000 M⁻¹ s⁻¹. Moreover, the ELISA signal in assay [6] worked out at 0.018; in assay [7] it was 3.15. The binding result in assay [8] and in assay [9] was “no binding (tested: 1 µg/ml)” each time.

Source of the values: US20170233490A1 (Hoffmann-La Roche, published 2017).
